Test results published in the RNAGym collection of RNA variant scans (doi:10.7554/elife.80360).

B1: Hairpin Ribozyme (parent)
chain: GUCCUCUUUCACGUGCGCGUGAAAGAGAGAAGUGAACCAGAGAAACACACGUUGUGGUAUAUUACCUGGUA

Variants of: B1
Experiment: self-cleavage, relative activity (ratio to wild type); higher = more cleavage; co-transcriptional

Variant	self-cleavage
C38G C65A	0.145
A39G U62G	0.074
C37A U70G	0.446
C37U U70A	0.544
C37U U70C	0.603
C37G C50G	0.0454
A39G A41G	0.619
A39G A41U	0.474
A39U C50G	0.0689
A39U C50A	0.139
A39U C50U	0.204
A39C A41G	0.591
C38U G69A	0.138
A36U A45C	0.224
A36U A45U	0.057
A36U A45G	0.106
C37G A45C	0.112
C37G A49G	0.18
A36U A49C	0.214
C38G C50G	0.0871
C38G C50A	0.162

Variant	self-cleavage
C37G C48A	0.192
C37G U62G	0.138
C38G C48A	0.202
C38G A64U	0.112
A39C A61U	0.125
C37U C65A	0.533
C38U A71U	0.401
C38U A71C	0.889
C38G G42C	0.134
A36U C38A	0.0871
A36U C38U	0.112
C38U C66A	0.167
C38U C66U	0.192
A39G G40A	0.102
C37A U60A	0.303
C37G G57A	0.13
C37G G57U	0.141
A36U U58A	0.386
A36U A59C	0.228
C37G G54U	0.255
C37U C50G	0.226

Variant	self-cleavage
C37G G56C	0.176
C37A A61G	0.207
C37A A41G	0.339
C38G A49G	0.0605
C38G A49C	0.106
C38G U63A	0.117
C38G U63G	0.231
C38G G54C	0.12
C38G G54U	0.0948
A39U A45G	0.252
A39U A45C	0.123
A39U G57U	0.123
A39U G57A	0.155
A39U G57C	0.134
A39G G68C	0.103
A39G G68A	0.0973
C37U U67A	0.175
C37G U52A	0.358
C37G U52C	0.242
C38A A59C	0.103
C37A U55G	0.0701

Variant	self-cleavage
C37A U55A	0.121
C38G U62C	0.236
A39U U55A	0.155
A39U A43C	0.129
C37G A61C	0.112
A39U A61C	0.187
C38G A59G	0.162
C38G A59U	0.125
C38U G56A	0.106
C38U G56U	0.14
A36U A43G	0.138
A36U A43C	0.0574
A36U A43U	0.0848
C37G A59U	0.0586
C37A G56U	0.189
C37A G56A	0.156
A36U U55A	0.161
C38U C46A	0.182
C37U U62G	0.166
C37U U62A	0.165
